From PMC12416549 (2024)

T1: TNFR1 (Homo sapiens, UniProt P19438)
T1 chain: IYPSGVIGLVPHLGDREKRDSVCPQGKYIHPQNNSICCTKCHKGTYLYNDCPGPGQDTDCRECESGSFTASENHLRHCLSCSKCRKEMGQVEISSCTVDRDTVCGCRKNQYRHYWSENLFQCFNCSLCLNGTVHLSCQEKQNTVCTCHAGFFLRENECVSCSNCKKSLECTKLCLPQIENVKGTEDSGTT


Molecular target: T1, TNFR1
Test: yeast display SC50

apparent Kd (screen) | Binder
1.86 nM | K103L (designed binder) MTLQELLREEALRRAEAEAFRYALELLAEKFPEQKEYLLDLAEEIESQIRSLSGVDVEDVRKFLDKEWAWVKELLAEHPAELAEVEAARAARLAELRAEVEALVAA
0.446 nM | Q4I (designed binder) MTLIELLREEALRRAEAEAFRYALELLAEKFPEQKEYLLDLAEEIESQIRSLSGVDVEDVRKFLDKEWAWVKELLAEHPAELAEVEAARAARLAELRAEVEAKVAA
12.5 nM | V60R (designed binder) MTLQELLREEALRRAEAEAFRYALELLAEKFPEQKEYLLDLAEEIESQIRSLSGVDVEDRRKFLDKEWAWVKELLAEHPAELAEVEAARAARLAELRAEVEAKVAA
0.539 nM | K103C (designed binder) MTLQELLREEALRRAEAEAFRYALELLAEKFPEQKEYLLDLAEEIESQIRSLSGVDVEDVRKFLDKEWAWVKELLAEHPAELAEVEAARAARLAELRAEVEACVAA
1.86 nM | S51I (designed binder) MTLQELLREEALRRAEAEAFRYALELLAEKFPEQKEYLLDLAEEIESQIRILSGVDVEDVRKFLDKEWAWVKELLAEHPAELAEVEAARAARLAELRAEVEAKVAA
0.718 nM | E84A (designed binder) MTLQELLREEALRRAEAEAFRYALELLAEKFPEQKEYLLDLAEEIESQIRSLSGVDVEDVRKFLDKEWAWVKELLAEHPAELAAVEAARAARLAELRAEVEAKVAA
1.4 nM | K66C (designed binder) MTLQELLREEALRRAEAEAFRYALELLAEKFPEQKEYLLDLAEEIESQIRSLSGVDVEDVRKFLDCEWAWVKELLAEHPAELAEVEAARAARLAELRAEVEAKVAA
1.86 nM | V55S (designed binder) MTLQELLREEALRRAEAEAFRYALELLAEKFPEQKEYLLDLAEEIESQIRSLSGSDVEDVRKFLDKEWAWVKELLAEHPAELAEVEAARAARLAELRAEVEAKVAA
2.48 nM | D40N (designed binder) MTLQELLREEALRRAEAEAFRYALELLAEKFPEQKEYLLNLAEEIESQIRSLSGVDVEDVRKFLDKEWAWVKELLAEHPAELAEVEAARAARLAELRAEVEAKVAA
2.25 nM | L39S (designed binder) MTLQELLREEALRRAEAEAFRYALELLAEKFPEQKEYLSDLAEEIESQIRSLSGVDVEDVRKFLDKEWAWVKELLAEHPAELAEVEAARAARLAELRAEVEAKVAA
1.16 nM | L75W (designed binder) MTLQELLREEALRRAEAEAFRYALELLAEKFPEQKEYLLDLAEEIESQIRSLSGVDVEDVRKFLDKEWAWVKELWAEHPAELAEVEAARAARLAELRAEVEAKVAA
3 nM | E86L (designed binder) MTLQELLREEALRRAEAEAFRYALELLAEKFPEQKEYLLDLAEEIESQIRSLSGVDVEDVRKFLDKEWAWVKELLAEHPAELAEVLAARAARLAELRAEVEAKVAA
1.05 nM | D59W (designed binder) MTLQELLREEALRRAEAEAFRYALELLAEKFPEQKEYLLDLAEEIESQIRSLSGVDVEWVRKFLDKEWAWVKELLAEHPAELAEVEAARAARLAELRAEVEAKVAA
0.49 nM | S53T (designed binder) MTLQELLREEALRRAEAEAFRYALELLAEKFPEQKEYLLDLAEEIESQIRSLTGVDVEDVRKFLDKEWAWVKELLAEHPAELAEVEAARAARLAELRAEVEAKVAA
0.49 nM | A105H (designed binder) MTLQELLREEALRRAEAEAFRYALELLAEKFPEQKEYLLDLAEEIESQIRSLSGVDVEDVRKFLDKEWAWVKELLAEHPAELAEVEAARAARLAELRAEVEAKVHA
1.05 nM | R97C (designed binder) MTLQELLREEALRRAEAEAFRYALELLAEKFPEQKEYLLDLAEEIESQIRSLSGVDVEDVRKFLDKEWAWVKELLAEHPAELAEVEAARAARLAELCAEVEAKVAA
10.4 nM | Y37T (designed binder) MTLQELLREEALRRAEAEAFRYALELLAEKFPEQKETLLDLAEEIESQIRSLSGVDVEDVRKFLDKEWAWVKELLAEHPAELAEVEAARAARLAELRAEVEAKVAA
2.73 nM | V55M (designed binder) MTLQELLREEALRRAEAEAFRYALELLAEKFPEQKEYLLDLAEEIESQIRSLSGMDVEDVRKFLDKEWAWVKELLAEHPAELAEVEAARAARLAELRAEVEAKVAA

apparent Kd (screen) | Binder
3 nM | A42H (designed binder) MTLQELLREEALRRAEAEAFRYALELLAEKFPEQKEYLLDLHEEIESQIRSLSGVDVEDVRKFLDKEWAWVKELLAEHPAELAEVEAARAARLAELRAEVEAKVAA
0.49 nM | K66D (designed binder) MTLQELLREEALRRAEAEAFRYALELLAEKFPEQKEYLLDLAEEIESQIRSLSGVDVEDVRKFLDDEWAWVKELLAEHPAELAEVEAARAARLAELRAEVEAKVAA
0.49 nM | Q4V (designed binder) MTLVELLREEALRRAEAEAFRYALELLAEKFPEQKEYLLDLAEEIESQIRSLSGVDVEDVRKFLDKEWAWVKELLAEHPAELAEVEAARAARLAELRAEVEAKVAA
0.718 nM | Q4A (designed binder) MTLAELLREEALRRAEAEAFRYALELLAEKFPEQKEYLLDLAEEIESQIRSLSGVDVEDVRKFLDKEWAWVKELLAEHPAELAEVEAARAARLAELRAEVEAKVAA
0.593 nM | E95A (designed binder) MTLQELLREEALRRAEAEAFRYALELLAEKFPEQKEYLLDLAEEIESQIRSLSGVDVEDVRKFLDKEWAWVKELLAEHPAELAEVEAARAARLAALRAEVEAKVAA
0.539 nM | K103Q (designed binder) MTLQELLREEALRRAEAEAFRYALELLAEKFPEQKEYLLDLAEEIESQIRSLSGVDVEDVRKFLDKEWAWVKELLAEHPAELAEVEAARAARLAELRAEVEAQVAA
0.593 nM | E9H (designed binder) MTLQELLRHEALRRAEAEAFRYALELLAEKFPEQKEYLLDLAEEIESQIRSLSGVDVEDVRKFLDKEWAWVKELLAEHPAELAEVEAARAARLAELRAEVEAKVAA
0.653 nM | E5F (designed binder) MTLQFLLREEALRRAEAEAFRYALELLAEKFPEQKEYLLDLAEEIESQIRSLSGVDVEDVRKFLDKEWAWVKELLAEHPAELAEVEAARAARLAELRAEVEAKVAA
0.446 nM | K103R (designed binder) MTLQELLREEALRRAEAEAFRYALELLAEKFPEQKEYLLDLAEEIESQIRSLSGVDVEDVRKFLDKEWAWVKELLAEHPAELAEVEAARAARLAELRAEVEARVAA
0.718 nM | E81D (designed binder) MTLQELLREEALRRAEAEAFRYALELLAEKFPEQKEYLLDLAEEIESQIRSLSGVDVEDVRKFLDKEWAWVKELLAEHPADLAEVEAARAARLAELRAEVEAKVAA
0.653 nM | A87L (designed binder) MTLQELLREEALRRAEAEAFRYALELLAEKFPEQKEYLLDLAEEIESQIRSLSGVDVEDVRKFLDKEWAWVKELLAEHPAELAEVELARAARLAELRAEVEAKVAA
0.593 nM | R92K (designed binder) MTLQELLREEALRRAEAEAFRYALELLAEKFPEQKEYLLDLAEEIESQIRSLSGVDVEDVRKFLDKEWAWVKELLAEHPAELAEVEAARAAKLAELRAEVEAKVAA
2.73 nM | V57I (designed binder) MTLQELLREEALRRAEAEAFRYALELLAEKFPEQKEYLLDLAEEIESQIRSLSGVDIEDVRKFLDKEWAWVKELLAEHPAELAEVEAARAARLAELRAEVEAKVAA
0.869 nM | A76M (designed binder) MTLQELLREEALRRAEAEAFRYALELLAEKFPEQKEYLLDLAEEIESQIRSLSGVDVEDVRKFLDKEWAWVKELLMEHPAELAEVEAARAARLAELRAEVEAKVAA
0.869 nM | K72E (designed binder) MTLQELLREEALRRAEAEAFRYALELLAEKFPEQKEYLLDLAEEIESQIRSLSGVDVEDVRKFLDKEWAWVEELLAEHPAELAEVEAARAARLAELRAEVEAKVAA
0.49 nM | L96K (designed binder) MTLQELLREEALRRAEAEAFRYALELLAEKFPEQKEYLLDLAEEIESQIRSLSGVDVEDVRKFLDKEWAWVKELLAEHPAELAEVEAARAARLAEKRAEVEAKVAA
0.79 nM | Q4H (designed binder) MTLHELLREEALRRAEAEAFRYALELLAEKFPEQKEYLLDLAEEIESQIRSLSGVDVEDVRKFLDKEWAWVKELLAEHPAELAEVEAARAARLAELRAEVEAKVAA
